Experimental findings from publication doi:10.1101/2024.04.08.588565v2 are described below.

Substrate in the data set: O=C1CCCCC1
Briefly: purified protein. Type of data set: biochemical, Streptosporangium roseum. As to conditions: 30 mM cyclopropylamine, 0.5 mM NADPH.

B1: SrIRED (Streptosporangium roseum DSM 43021; P203A/T241G) (protein)
chain: MRDTDVTVLGLGLMGQALAGAFLKDGHATTVWNRSEGKAGQLAEQGAVLASSARDAAEASPLVVVCVSDHAAVRAVLDPLGDVLAGRVLVNLTSGTSEQARATAEWAAERGITYLDGAIMAIPQVVGTADAFLLYSGPEAAYEAHEPTLRSLGAGTTYLGADHGLSSLYDVALLGIMWGTLNSFLHGAALLGTAKVEATTFAAFANRWIEAVTGFVSAYAGQVDQGAYPALDATIDTHVAGVDHLIHESEAAGVNTELPRLVRTLADRALAGGQGGLGYAAMIEQFRSPSA
A word on the Km: it is the concentration of substrate that gives half-maximal velocity. In general, kcat refers to the number of substrate molecules converted per active site and unit of time at saturation. In the case of B1, for the setting “Tris pH 8, 25 °C”, the Km is 5100 ± 400 µM and the kcat amounted to 49.3 ± 1.5 s⁻¹.

B2: SrIRED (Streptosporangium roseum DSM 43021; T241A) (protein)
chain: MRDTDVTVLGLGLMGQALAGAFLKDGHATTVWNRSEGKAGQLAEQGAVLASSARDAAEASPLVVVCVSDHAAVRAVLDPLGDVLAGRVLVNLTSGTSEQARATAEWAAERGITYLDGAIMAIPQVVGTADAFLLYSGPEAAYEAHEPTLRSLGAGTTYLGADHGLSSLYDVALLGIMWGTLNSFLHGAALLGTAKVEATTFAPFANRWIEAVTGFVSAYAGQVDQGAYPALDATIDTHVAAVDHLIHESEAAGVNTELPRLVRTLADRALAGGQGGLGYAAMIEQFRSPSA
Turning to B2, where the note is “Tris pH 8, 25 °C”, the Km is 2310 ± 330 µM and the kcat was 5.77 ± 0.24 s⁻¹.

B3: SrIRED (Streptosporangium roseum DSM 43021) (protein)
chain: MRDTDVTVLGLGLMGQALAGAFLKDGHATTVWNRSEGKAGQLAEQGAVLASSARDAAEASPLVVVCVSDHAAVRAVLDPLGDVLAGRVLVNLTSGTSEQARATAEWAAERGITYLDGAIMAIPQVVGTADAFLLYSGPEAAYEAHEPTLRSLGAGTTYLGADHGLSSLYDVALLGIMWGTLNSFLHGAALLGTAKVEATTFAPFANRWIEAVTGFVSAYAGQVDQGAYPALDATIDTHVATVDHLIHESEAAGVNTELPRLVRTLADRALAGGQGGLGYAAMIEQFRSPSA
Turning to B3, for the setting “100 mM Tris pH 8.0, 25 °C”, the Km stood at 3520 ± 440 µM and the kcat came out at 2.11 ± 0.08 s⁻¹.

B4: SrIRED (Streptosporangium roseum DSM 43021; E146V) (protein)
chain: MRDTDVTVLGLGLMGQALAGAFLKDGHATTVWNRSEGKAGQLAEQGAVLASSARDAAEASPLVVVCVSDHAAVRAVLDPLGDVLAGRVLVNLTSGTSEQARATAEWAAERGITYLDGAIMAIPQVVGTADAFLLYSGPEAAYEAHVPTLRSLGAGTTYLGADHGLSSLYDVALLGIMWGTLNSFLHGAALLGTAKVEATTFAPFANRWIEAVTGFVSAYAGQVDQGAYPALDATIDTHVATVDHLIHESEAAGVNTELPRLVRTLADRALAGGQGGLGYAAMIEQFRSPSA
B4: under “Tris pH 8, 25 °C”, the Km was found to be 2400 ± 300 µM and the kcat was 1.7 ± 0.1 s⁻¹.

B5: SrIRED (Streptosporangium roseum DSM 43021; T241S) (protein)
chain: MRDTDVTVLGLGLMGQALAGAFLKDGHATTVWNRSEGKAGQLAEQGAVLASSARDAAEASPLVVVCVSDHAAVRAVLDPLGDVLAGRVLVNLTSGTSEQARATAEWAAERGITYLDGAIMAIPQVVGTADAFLLYSGPEAAYEAHEPTLRSLGAGTTYLGADHGLSSLYDVALLGIMWGTLNSFLHGAALLGTAKVEATTFAPFANRWIEAVTGFVSAYAGQVDQGAYPALDATIDTHVASVDHLIHESEAAGVNTELPRLVRTLADRALAGGQGGLGYAAMIEQFRSPSA
On to B5, for which, where the note is “Tris pH 8, 25 °C”, the Km is 2310 ± 510 µM and the kcat stood at 6.02 ± 0.39 s⁻¹.
